We go through 1 molecule from PMC7269035.

For this data set, the target named is LARP1 DM15 F844Y/R847E (FYRE) (Homo sapiens, UniProt Q6PKG0-3 796-946, F844Y;R847E). The experiment in a line: EMSA. (In general: Mobility shift assays separate free from complexed probe on a gel.)

GCUCUUUUCCGUGGCGCCUC (ssRNA, 5' m7Gppp cap (vaccinia capping enzyme)) [m7Gppp-non-TOP (+1G) RPS6 20-mer]: the binding result is recorded as “binds”.
